B1: TPR t1 (parent)
chain: GACCAAUCUGCCCUCAGAGCUCGAGAACAUCUUCGGAUGCAGAGGAGGCAGGCUUCGGUGGCGCGAUAGCGCCAACGUCCUCAACCUCCAAUGCAUCCCACCACAUGAUGAUGCCUGAAGAGCCUUGGUUUUUUG

Variants of: B1
Assay: polymerase ribozyme fitness, log enrichment relative to wild type (log ratio); higher = more active; in vitro selection for triplet polymerase activity
In short: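 In triplicate, a single round of in vitro selection was run on each mutant library, PCR-built and transcribed, covering one subunit of a heterodimeric triplet polymerase ribozyme. Frozen incubation at −7 °C followed annealing with a biotinylated primer, partner subunit and triplets, and extended constructs were then gel-excised, streptavidin-captured and taken through RT-PCR. Fitness is the logarithm of genotype enrichment over wild-type enrichment, from inverse-variance-weighted replicate averages of Illumina-sequenced inputs and outputs. […] only genotypes with ≥10 input reads and ≥1 read per output were kept.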

Point of comparison: C4G G36A A43C G45U C124G, “polymerase ribozyme fitness (log ratio)” value -4.47. Against it:
- C4A A27G A75G G120U — within 0.2 log units, -4.55
- C4G G10C C115U — higher, -3.25
- A5C U78C G127C U129C — higher, -2.19
- A5G C56G — higher, -0.49
- A5C A26U G36A C88U — lower, -6.38
- C4A C72G G77A G120A — higher, -1.74
- C4A C115U G120A U131A — lower, -5.05
- A5G C13A C53U U59G G69C — within 0.2 log units, -4.36
- A5G C12A G45A U78C C88A — higher, -0.938
- A5G A37G C53U A105G U112G U125G G135U — lower, -5.89
- C4U A6G C13G A83G — higher, -1.95
- A5C C124A U126A U131A — higher, 0.939
- A5C G42U G48C G69U — higher, -0.971
- C4A C34A G71U — within 0.2 log units, -4.3
- A5G C104U G117C U130G — higher, -3.77
- C4U A41U G44A G45A C53U G63C — lower, -6.08
- A5C C11U G122A — higher, 0.875
- A5C G10A C86A — higher, -0.155
- C4U C72A C85U C102U A121G U133A — higher, 0.405
- C4G A27U G45A G61A C86A C97A G117A — lower, -6.02
- C4U C86U C101G — higher, -1.82
- C4G C22G G42A C53G — higher, -4.26
- C3U U9C C49A G69A C115A — higher, -0.734
- C4G C80U — higher, -1.83
- A5C A84U — higher, -1.12
- A5C G48C U78A C115A — higher, -2.4
- C3U U9G G19U G58C — higher, -3.13
- A5C C22G C56G C123U — within 0.2 log units, -4.43
- C3U U38G C62U G120A A121G G122A C123G U125C — higher, -0.77
- C4A C73A U81A — higher, -3.04
- A5C C11U C40U G48U G60U U87A A111C — lower, -4.98
- C4G C12U C97A U112C — higher, -2.59
- C4U A24U C70G U92G U116C G120C — lower, -6.86
- A5G C62U C88G U112C C123A C124A U130A — higher, 0.112
- C4G C12A U87G C115U — higher, -3.74
- C4G C123G G128C — higher, -0.896
- A5G A43C G44C G52C C73U U109A C114U C115A — lower, -6.36
- C4U C53G G57U G110A — higher, -1.58
- A5G G10A C15A G23C U32G C64A G128C U130C — lower, -6.17
- A5G A6C A43G C72U — higher, -2.46
- C4U C49U A66G G69C U78A — lower, -5.15
- A5G A27G G45C C97U G120A — higher, -2.95
- A5G C12A U38A G60A A121C G135U — higher, 0.199
- C4A C124A — higher, -0.256
- A5U A18C — higher, -1.31
- C4A A46U C53G U130C — higher, -2.39
- A5G G44C C82A — higher, -2.23
- A5G C40A G120U — higher, -0.337
- C4U C56A C101A G117C — lower, -5.92
- C4G C13U U21C C62G G120U — higher, -2.48
- A5G C89G — higher, -1.15
- C4U C13G C15A G19A A90C C115U A119G — lower, -5.79
- C3U U96A — higher, -1.12
- C4U C11U A18G C34U C73G C124G — lower, -5.4
- C4A A18G C40A C114A A119G — higher, -3.79
- C4A G69U A74G A90U U106A G117C — lower, -4.9
- C4U C11A G61U C98U G113A U126G — lower, -5.59
- A5C C8G A26U — higher, -1.68
- C4U A90G — higher, -0.325
- C4U A43U — higher, -2.23
- A5G G19A C72U U87A G117U — lower, -4.71
- C4U C62U C124G — higher, 1.31
- A5U A6C G47A — higher, -1.7
- A5G A18G G44C G48C U55C U59G G69U G117U — lower, -5.43
- C4U C70A C85G C86U — higher, -3.72
- C4G A66G C115A — higher, -2.94
- C4U A37U U38A A46G A50G — higher, -2.72
- C4U C13U G42A G69U G77A A90U C104U — higher, -0.867
- C4U C11G C12A G19C C62G — lower, -4.71
- A5C G71U — higher, -0.21
- C4G C15A A16U C53A C72U U78C C115U — higher, -3.84
- C4G A37G C53U A111C — higher, -1.68
- A5G C8U C34A C62U G117A — lower, -5.35
- C4A G36U C70U — higher, -3.69
- A5C C11G C79U G117C — higher, -1.88
- A5C U7G U54A G110C — lower, -4.81
- C4A G120U — higher, -1.6
- A5G A27U A111G — higher, -3.24
- C4U C15A C82G — higher, -3.56
- C4U A5U C31G G45U U54A A68U G110A C114U — lower, -6.24
- C4U A6G G39A C72A C85A A90G C114U — higher, -3.29
- C4G U9A U112G G117U — higher, -2.18
- C3U U14G A26U G60U C123A — higher, -4.1
- C3U U125A — higher, -1.04
- C4G A5C C82U U125A — higher, -1.74
- A5U A16C — higher, -2.72
- C4U A41G — higher, -0.698
- C4G A50C C115U — within 0.2 log units, -4.34
- C4U U81A — higher, -1.77
- A5G G42U C115U — higher, -1.79
- A5C C12G C49A A83C — higher, -0.122
- C4A G61C — higher, -3.08
- C4A C80A — lower, -5.24
- C4G C8A C20G A111C C123G — lower, -4.96
- A5C C8U A16U G45U G63A — higher, -2.38
- C4G A50U G61U — higher, -2.2
- C4G C15U U96A G127C — higher, -2.26
- A5G U112A G127U — higher, 0.804
- C4U C62G U112A — higher, -1.6
- C4G C8G C11A U14G C124U — higher, -0.919
- C4G A27G A29G — lower, -5.02
- C4G C80U C89G — within 0.2 log units, -4.61
- A5C C22U C89A A121G — within 0.2 log units, -4.41
- A5G G45A — higher, -0.52
- C4U A43G G47U C53U G61U — higher, -3.38
- C4U A27C U54C C82A — higher, -3.17
- C4U C56A U130C — higher, -0.451
- C4G A43U A46G G113A — higher, -3.76
- A5U A6U C62G C104U — higher, -1.25
- C4A C13A A27C C123G — higher, -3.14
- A5G C13U C98U G128U — higher, -3.14
- C4A C12A C86G G120U G128C — higher, -1.61
- C4U U130A — higher, -1.49
- C4U C85U — higher, -1.63
- C4U G69U G93U — higher, -1.17
- A5G A18U C28U — within 0.2 log units, -4.63
- C4G U32C G45U — higher, -3.28
- C4G A37U — higher, -1.82
- C4A G60A — higher, -0.949
- A5G A41C — higher, -0.911
- C3U U9A C73A C79A U92G — higher, -3.38
- C4U G17C G48A G69C G120C — within 0.2 log units, -4.5
- A5C G63A U81A — higher, -2.31
- C4U G52A C62U C82G G120C — higher, -0.476
- A5G C40A C72U G110U — higher, -3.65
- C3U U130G — higher, -0.624
- C4U C53U U125A — higher, -1.45
- A5C C56G C98A A121C — higher, -3.33
- C4G G39U A46C C72A U87G C88G — higher, -3.06
- C4G A18C A46G A83U G128A — lower, -5.74
- C4A C13U C40A G52A C104U — higher, -2.23
- C4A A121U U129G — higher, 0.901
- A5C A43U U78C G93C — lower, -4.85
- A5C G47A U59A A100C U106C — higher, -4.2
- A5C G63C C94A G113C G122U — within 0.2 log units, -4.6
- A5C C123G — higher, 1.35
- A5C G58A G60C — higher, -0.634
- A5C C12A C73U — higher, -0.891
- A5C C40A C64U C89U C102U U106A — lower, -7.21
- C4A A27U — higher, -3.57
- A5G U9A G52U — higher, -1.25
- C4G G44A A46U U59C — higher, -3.73
- A5C A37C C70U G110U — higher, -4.1
- C4U A46U A95C — higher, -2.04
- C4G G61U — higher, -1
- A5C C12A A27U — higher, -4.25
- C4A G52C A74C — higher, -2.47
- C4U C11U A37U G71C — higher, -1.4
- A5C A16G C20U A43G A121G — higher, -0.652
- C4U C11G U54A G63C C101A U112C — higher, 0.841
- A5G G44U G52A — higher, -2
- C4G G61A U87G — higher, -2.28
- A5G C40U G69U A100G — higher, -1.21
- A5C C34A G42C C88U — lower, -5.7
- C4U C49U C85U C89G — higher, -2.63
- C4G C40U A66C C86G C97A C115G — lower, -6.24
- C4G U78C C88U C94G C124U — higher, -2.42
- C4U A16G C49U G69U G113U — higher, -2.65
- C4G U9G A41G — higher, -1.21
- C4U C11A G51C — lower, -4.83
- A5U A6G A46C G61A C115G — higher, -2.35
- A5C U7C G63U C94G G113C A118C — lower, -6.82
- C3U U112G C114A — higher, -3.78
- C4U C49U C98U — higher, -2.14
- C4G G71U — higher, -1.92
- A5C U32C A41G G60A U78A U96A — higher, -2.78

Reference: the RNAGym collection of RNA variant scans (doi:10.1073/pnas.2313332121)
